The target of the data set is T1, RecA (UniProt P0A7G6).
T1 sequence: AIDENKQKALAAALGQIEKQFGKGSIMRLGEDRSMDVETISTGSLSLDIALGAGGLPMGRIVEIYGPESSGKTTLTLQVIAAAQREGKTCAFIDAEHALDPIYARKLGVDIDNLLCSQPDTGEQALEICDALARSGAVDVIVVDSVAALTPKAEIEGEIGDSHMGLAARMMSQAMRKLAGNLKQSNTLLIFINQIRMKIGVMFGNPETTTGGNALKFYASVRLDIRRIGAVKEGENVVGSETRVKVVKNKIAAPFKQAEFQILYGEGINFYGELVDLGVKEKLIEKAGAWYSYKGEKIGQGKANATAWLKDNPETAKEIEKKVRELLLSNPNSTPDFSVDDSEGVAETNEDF
Put plainly: EMSA. The note with it: 5'-acridine; C5-propynyl-dU, 5-methyl-dC, 7-deaza-dG in TFO; triethyleneglycol spacer between TFO and adapter; with Y0Gorec plasmid, 15 uM RecA, ATPgammaS, ADP, 12.5 mM MgCl2; 22% without RecA; 100% of complex associated with plasmid in RecA reaction. For orientation: A gel shift assay detects complexes by their altered migration in electrophoresis.

In turn, “NNNNNTNTNNNGNGGNGCGCGTGGCCAGC [TFO1-S + R (GOREC with homologous 40-nt R)]” returned an activity (% joint molecules in 5 min) of 80.
